Results published in US6713280 (THOMAS JEFFERSON UNIVERSITY, dated 2004).
No end group written: not given here. *: point of attachment. Decanoyl = CCCCCCCCCC(=O)*

B1: fluorescein-labeled peptide SEQ ID NO:30 (Flu-SEQ ID NO:30) (peptide)
peptide: GQVGRQLAIIGDDINR
modifications: also: fluorescein label, site of attachment not given here
notes: Synthetic peptide labeled with fluorescein; tracer of the fluorescence polarization assay; also called fluoresceinated BakBH3 peptide; Flu-SQ30

Columns and labels:
Bax = Bax (UniProt Q07812 1-171, limits assumed); assay: fluorescence polarization, FIG. 2: C
Bax, sequence (Q07812 1-171 limits assumed): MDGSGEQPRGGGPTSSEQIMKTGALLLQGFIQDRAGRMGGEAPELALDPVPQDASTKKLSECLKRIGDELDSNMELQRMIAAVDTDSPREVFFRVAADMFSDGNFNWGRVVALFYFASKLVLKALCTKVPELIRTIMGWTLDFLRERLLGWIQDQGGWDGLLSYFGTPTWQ

CD4 = CD4 (UniProt P01730 26-396, limits assumed); assay: fluorescence polarization, FIG. 2: E
[1] = biological target: T1, SH3 domain of the Bcr-Abl oncoprotein (UniProt P00519 61-121); assay: fluorescence polarization, FIG. 2: D
T1 construct: domain: SH3 domain; also called Bcr-Abl SH3
T1 sequence (P00519 61-121 limits assumed): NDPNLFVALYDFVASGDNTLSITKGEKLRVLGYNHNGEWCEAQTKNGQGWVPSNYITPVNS

GST-Bcl-2 protein = biological target: T2, GST-Bcl-2 protein (UniProt P10415 1-205, limits assumed); assay: fluorescence polarization competition; 30 nM Flu-SEQ ID NO:30, 0.5 µM GST-Bcl-2, conjugate at 0.005-0.32 µM, 30 minutes at 37° C.
T2 construct: not shown: GST tag
T2 sequence (P10415 1-205 limits assumed): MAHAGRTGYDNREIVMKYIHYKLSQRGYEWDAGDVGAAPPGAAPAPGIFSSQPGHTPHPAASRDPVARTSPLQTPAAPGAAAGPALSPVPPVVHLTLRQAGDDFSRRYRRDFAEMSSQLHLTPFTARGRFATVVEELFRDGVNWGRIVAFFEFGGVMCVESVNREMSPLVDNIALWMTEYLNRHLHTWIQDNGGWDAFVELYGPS

Binder	binding result (Bax)	binding result (CD4)	binding result [1]	EC50 (GST-Bcl-2 protein) [nM]
B1	no binding	no binding	no binding	
Decanoyl-KNLWAAQRYGRELRRMSDEFEGSFKGL (also called decyl-K1285) [decyl-SEQ ID NO:56 (CH3(CH2)8COHN-KNLWAAQRYGRELRRMSDEFEGSFKGL)]				130
